{"source": "patent US6635450", "about": "(FRED HUTCHINSON CANCER RESEARCH CENTER, dated 2003)", "biological_target": "Cdk2 alone (baculoviral HA-tagged Cdk2 immunoadsorbed to sepharose beads) (UniProt P24941 1-298)", "experiment": "depletion of the Cdk2 inhibitor from Mv1Lu cell extracts on Cdk2 sepharose beads, read by cyclin E-associated H1 kinase activity", "experimental": "Cyclin E-Cdk2 sepharose was prepared by mixing 1.2 µl of Sf9 cell lysate containing Hemagglutinin tagged Cdk2 (Cdk2 -HA) with 12 µl lysate containing cyclin E in buffer A (30 mM HEPES-KCH pH 7.5, 7.5 mM MgCl_2, 1 mM DTT) containing 10 mM ATP and incubated at room temperature for 30 minutes to allow complete formation. The assembly reaction was then adjusted to 250 mM NaCl and 0.5% NP40. The Cdk2-HA containing complexes were immunoprecipitated with the 12CA5 monoclonal antibody (BABCO) and collected on protein A-sepharose. Cdk2 sepharose was prepared in an identical manner except cyclin E was omitted. Immunoprecipitates were washed twice with NP40 RIPA buffer ([…], 250 mM NaCl, 10 mM EDTA, 20 mM Tris-HCl pH 7.4) and four times with buffer A. The matrix was divided into 4 aliquots and incubated with 100 µg of cell extract in buffer A containing 3 mM ATP, 20 µg/ml creatine phosphokinase, 40 mM phospho-creatine for 45 minutes at 37° C. After incubation the supernatant was collected and assayed for Cdk2 activation by addition of recombinant cyclin E as described below. A critical parameter in the execution of this experiment is to ensure that no cyclin, Cdk or complex leaks from the beads into the cell extract. This is unpredictable and must be checked by immunoblotting each time the experiment is performed."}
{"binder": "p27 protein, the 27 kD cyclin E-Cdk2 binding protein of Mv1Lu mink epithelial cells (endogenous) (other, also called p27^Kip1; Kip1) MSNVRVSNGSPSLERMDARQAEYPKPSACRNLFGPVNHEELTRDLEKHRRDMEEASQRKWNFDFQNHKPLEGKYEWQEVEKGSLPEFYYRPPRPPKGACKVPAQESQDVSGTRQAVPLMGSQANSEDTHLVDQKTDTADNQAGLAEQCTGIRKRPATDDSSPQNKRANRTEENVSDGS", "values": [{"measurement": "binding result", "value": "no binding"}]}
